Laboratory results reported in patent US20210403593A1 (TIZONA THERAPEUTICS, published 2021).
Substitutions are numbered along the chain they refer to.

B1: 31861 (antibody, human IgG4 S228P, kappa, V domains shown)
VH: QVQLVQSGAEVKKPGSSVKVSCKASGGTFGSYGISWVRQAPGQGLEWMGSIIPEFGIANYAQKFQGRVTITADESTSTAYMELSSLRSEDTAVYYCARESGTYRDHRLDVWGQGTMVTVSS
VL: EIVMTQSPATLSVSPGERATLSCRASQSVGSNLAWYQQKPGQAPRLLIYGASTRATGIPARFSGSGSGTEFTLTISSLQSEDFAVYYCQQYLLWPLTFGGGTKVEIKR
B2: 31873 (antibody, human IgG4 S228P, kappa, V domains shown)
VH: B1 VH with G30S, S31K, T102G, D109G
VL: B1 VL with T56S
B3: 31896 (antibody, V domains shown)
VH: QVQLVQSGAEVKKPGSSVKVSCKASGGTFSKLAISWVRQAPGQGLEWMGGIGFGTANYAQKFQGRVTITADESASTAYMELSSLRSEDTAVYYCARGGAKYASTHGMDVWGQGTTVTVSS
VL: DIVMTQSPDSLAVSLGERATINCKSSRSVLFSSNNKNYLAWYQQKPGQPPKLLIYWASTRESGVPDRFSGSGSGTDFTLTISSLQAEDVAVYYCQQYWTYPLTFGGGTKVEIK
B4: 31915 (antibody, human IgG4 S228P, kappa, V domains shown)
VH: B3 VH with K31S, A33P, A74T, T104K, H105W
VL: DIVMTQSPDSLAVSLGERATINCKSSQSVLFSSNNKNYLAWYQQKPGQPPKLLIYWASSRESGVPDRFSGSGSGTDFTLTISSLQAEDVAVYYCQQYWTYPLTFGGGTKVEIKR
B5: 31414 (antibody, human IgG4 S228P, kappa, V domains shown)
VH: QVQLVQSGAEVKKPGASVKVSCKASGYTFKSYEMHWVRQAPGQGLEWMGRINPSVGSTWYAQKFQGRVTMTRDTSTSTVYMELSSLRSEDTAVYYCARGKREGGTEYLRNWGQGTLVTVSS
VL: EIVLTQSPGTLSLSPGERATLSCRASQSVSSSYLAWYQQKPGQAPRLLIYGASSRATGIPDRFSGSGSGTDFTLTISRLEPEDFAVYYCQQYHSYITFGGGTKVEIKR
B6: 31891 (antibody, human IgG4 S228P, kappa, V domains shown)
VH: B5 VH with T28I, N110V
VL: B5 VL with G51Y, T57Y, S94N, Y95A
B7: 31430 (antibody, human IgG4 S228P, kappa, V domains shown)
VH: B5 VH with V55G, N110H
VL: B5 VL with R24E, S31Y, T57N, Y95A, I96L
B8: 31418 (antibody, human IgG4 S228P, kappa, V domains shown)
VH: B5 VH with V55G, N110H
VL: B5 VL with H93Y, S94F
B9: 31415 (antibody, human IgG4 S228P, kappa, V domains shown)
VH: B5 VH with K30T, E33Q, V55G, N110S
VL: B5 VL

Key:
[1] = biological target: T1, cynomolgus macaque (Macaca fascicularis) CD39 (Macaca fascicularis, UniProt P49961 7-510 (human entry)); experiment: flow cytometry, 100 nM IgG, MFI on CHO-cCD39 / MFI on parental CHO;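 note: antibodies bound to the cells for 30 min in PBS, then bound IgG was revealed with a fluorescent goat anti-human IgG secondary antibody, 20 min on ice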
T1 construct: On engineered CHO cells and on primary cyno B cells and monocytes; also called cyno CD39; cCD39
T1 chain: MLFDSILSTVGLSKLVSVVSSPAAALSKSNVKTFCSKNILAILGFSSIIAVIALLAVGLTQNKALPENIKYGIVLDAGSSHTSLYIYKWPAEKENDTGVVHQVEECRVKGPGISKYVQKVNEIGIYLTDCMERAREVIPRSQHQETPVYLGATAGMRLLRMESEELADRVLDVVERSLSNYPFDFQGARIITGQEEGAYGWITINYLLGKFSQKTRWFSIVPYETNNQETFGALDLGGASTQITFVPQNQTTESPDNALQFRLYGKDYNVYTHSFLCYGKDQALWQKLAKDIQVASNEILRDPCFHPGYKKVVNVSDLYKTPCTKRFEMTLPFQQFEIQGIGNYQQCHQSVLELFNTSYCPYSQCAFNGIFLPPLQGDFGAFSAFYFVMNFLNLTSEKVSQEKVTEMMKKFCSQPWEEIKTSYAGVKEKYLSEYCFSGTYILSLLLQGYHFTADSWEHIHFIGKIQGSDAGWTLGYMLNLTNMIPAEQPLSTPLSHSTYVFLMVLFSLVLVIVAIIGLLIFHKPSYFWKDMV

human CD39 (cellular) = biological target: T2, human CD39 (cellular) (human, UniProt P49961 1-510); experiment: flow cytometry, 100 nM IgG, MFI on CHO-hCD39 / MFI on parental CHO;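 note: cells exposed to IgG for 30 min on ice in PBS, bound antibody then revealed with a fluorescent goat anti-human IgG secondary (20 min, on ice)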
T2 construct: Same protein on engineered CHO cells and on cells that express it endogenously; also called hCD39; cellular CD39
T2 sequence: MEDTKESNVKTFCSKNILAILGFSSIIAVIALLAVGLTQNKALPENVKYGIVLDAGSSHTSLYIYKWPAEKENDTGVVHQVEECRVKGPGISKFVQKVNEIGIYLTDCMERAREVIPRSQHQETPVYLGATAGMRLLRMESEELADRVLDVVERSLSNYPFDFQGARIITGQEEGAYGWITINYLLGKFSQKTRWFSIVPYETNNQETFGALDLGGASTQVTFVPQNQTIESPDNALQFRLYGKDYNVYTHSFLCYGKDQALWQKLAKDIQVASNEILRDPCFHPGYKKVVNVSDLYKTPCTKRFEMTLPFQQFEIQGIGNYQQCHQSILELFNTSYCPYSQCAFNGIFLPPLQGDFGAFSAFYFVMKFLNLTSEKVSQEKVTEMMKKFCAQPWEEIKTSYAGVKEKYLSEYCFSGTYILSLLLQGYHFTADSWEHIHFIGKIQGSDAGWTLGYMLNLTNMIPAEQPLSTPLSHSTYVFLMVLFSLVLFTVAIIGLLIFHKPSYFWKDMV

Chimera #4 = biological target: T3, Chimera #4 (Homo sapiens (Human), UniProt P49961 1-510); experiment: FACS on CHO cells, 15 ug/ml; human M1-S274 + mouse GGV + human L278-V510
T3 construct: Expressed on CHO cells
T3 chain: T2 sequence with N275G, E276G, I277V

Chimera #2 = biological target: T4, Chimera #2 (human, UniProt P49961 1-510); experiment: FACS on CHO cells; human M1-E142 + mouse Q143-S158 ([..]) + human Y159-V510
T4 construct: Expressed on CHO cells; also called human-mouse Chimera #2
T4 chain: T2 sequence with E143Q, L144S, R147E, D150A, V151A, E153S, R154T, S157K, N158S

Chimera #9 = biological target: T5, Chimera #9 (Homo sapiens (Human), UniProt P49961 1-510); experiment: FACS on CHO cells, 15 ug/ml; Chimera 2 with human D150 ([..])
T5 construct: Expressed on CHO cells
T5 chain: T2 sequence with E143Q, L144S, R147E, V151A, E153S, R154T, S157K, N158S

Chimera #10 = biological target: T6, Chimera #10 (Homo sapiens (Human), UniProt P49961 1-510); experiment: FACS on CHO cells, 15 ug/ml; Chimera 2 with human E153 ([..])
T6 construct: Expressed on CHO cells
T6 chain: T2 sequence with E143Q, L144S, R147E, D150A, V151A, R154T, S157K, N158S

Binder	Cell Binding (FOB) [1]	Cell Binding (FOB) (human CD39 (cellular))	binding result (Chimera #4)	binding result (Chimera #2)	binding result (Chimera #9)	binding result (Chimera #10)
B1	5480 fold over background	1430 fold over background	–	–	–	–
B2	5080 fold over background	1320 fold over background	binds	–	–	–
B3	4540 fold over background	1040 fold over background	–	–	–	–
B4	4580 fold over background	1090 fold over background	–	–	–	–
B5	3570 fold over background	1240 fold over background	binds	no binding (tested: 15 ug/ml)	binds	binds
B6	4650 fold over background	1030 fold over background	–	–	–	–
B7	3570 fold over background	1220 fold over background	–	–	–	–
B8	3180 fold over background	1080 fold over background	binds	no binding (tested: 15 ug/ml)	binds	binds
B9	3360 fold over background	1170 fold over background	–	–	–	–
